{"source": "patent US20140199316A1", "about": "(published 2014)", "molecular_target": "T1, recombinant mouse E-selectin-human Fc chimera (mouse, UniProt Q00690 22-557)", "T1 construct": "Bought reagent (R&D Systems); Used as the probe in western blots and detected with HRP goat anti-human Ig; also called E-selectin-Ig chimera; E-Ig; not shown: human Fc", "T1 sequence (looked up)": "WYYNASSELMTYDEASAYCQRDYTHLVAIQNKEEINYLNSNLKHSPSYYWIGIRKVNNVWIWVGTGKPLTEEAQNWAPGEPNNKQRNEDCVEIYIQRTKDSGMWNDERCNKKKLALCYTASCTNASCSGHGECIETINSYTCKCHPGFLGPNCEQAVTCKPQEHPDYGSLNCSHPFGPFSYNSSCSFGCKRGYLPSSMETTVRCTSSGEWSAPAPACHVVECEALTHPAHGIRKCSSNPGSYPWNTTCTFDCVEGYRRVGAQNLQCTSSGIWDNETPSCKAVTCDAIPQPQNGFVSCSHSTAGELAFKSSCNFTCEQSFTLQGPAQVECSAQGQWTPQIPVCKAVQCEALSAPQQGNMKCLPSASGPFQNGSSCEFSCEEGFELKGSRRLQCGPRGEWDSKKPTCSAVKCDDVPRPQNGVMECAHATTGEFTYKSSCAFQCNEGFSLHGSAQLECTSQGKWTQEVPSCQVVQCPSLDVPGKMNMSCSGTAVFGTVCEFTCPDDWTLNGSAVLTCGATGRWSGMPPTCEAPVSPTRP", "test": "western blot of ML lysates and WGA-purified glycoproteins, reducing SDS-PAGE", "data": [{"binder": "P-selectin glycoprotein ligand-1 (PSGL-1), Cutaneous Lymphocyte Antigen glycoform, from ML lysates (ligand, human, UniProt Q14242 42-412, looked up, sialofucosylated glycans, Named only by the position of its band in the blot; also called CLA; ~140 kDa E-selectin ligand) QATEYEYLDYDFLPETEPPEMLRNSTDTTPLTGPGTPESTTVEPAARRSTGLDAGGAVTELTTELANMGNLSTDSAAMEIQTTQPAATEAQTTQPVPTEAQTTPLAATEAQTTRLTATEAQTTPLAATEAQTTPPAATEAQTTQPTGLEAQTTAPAAMEAQTTAPAAMEAQTTPPAAMEAQTTQTTAMEAQTTAPEATEAQTTQPTATEAQTTPLAAMEALSTEPSATEALSMEPTTKRGLFIPFSVSSVTHKGIPMAASNLSVNYPVGAPDHISVKQCLLAILILALVATIFFVCTVVLAVRLSRKGHMYPVRNYSPTEMVCISSLLPDGGEGPSATANGGLSKAKSPGLTPEPREDREGDDLTLHSFLP", "values": [{"measurement": "binding result", "value": "binds"}]}]}
